Residue numbers refer to the chain shown, from its start. Read-outs that look alike come from different tables or passages of the source.
B1: U7/SPL (structured_RNA)
RNA: CAGUGUUACAGCUCUUUUAGAAUUUUUGGAGUAGGCUUUCUGGCUUUUUACCGGAAAGCCCCUCUUAUG
B2: U7/PU (structured_RNA)
RNA: B1 RNA with C12G, U13A, C14G, U15A, U26G, G28C, G29U
B3: U7/2xGA (structured_RNA)
RNA: B1 RNA with A19G, G20A, U26G, G28C, G29U, A30G, G31A
B4: U7/2xMut (structured_RNA)
RNA: B1 RNA with C12G, U13A, C14G, U15A

What was measured:
Assay in all cases: EMSA
PTBP2 (TnT) = PTBP2 (TnT) (UniProt Q9UKA9 1-531)
Chain of PTBP2 (TnT) (Q9UKA9 whole entry): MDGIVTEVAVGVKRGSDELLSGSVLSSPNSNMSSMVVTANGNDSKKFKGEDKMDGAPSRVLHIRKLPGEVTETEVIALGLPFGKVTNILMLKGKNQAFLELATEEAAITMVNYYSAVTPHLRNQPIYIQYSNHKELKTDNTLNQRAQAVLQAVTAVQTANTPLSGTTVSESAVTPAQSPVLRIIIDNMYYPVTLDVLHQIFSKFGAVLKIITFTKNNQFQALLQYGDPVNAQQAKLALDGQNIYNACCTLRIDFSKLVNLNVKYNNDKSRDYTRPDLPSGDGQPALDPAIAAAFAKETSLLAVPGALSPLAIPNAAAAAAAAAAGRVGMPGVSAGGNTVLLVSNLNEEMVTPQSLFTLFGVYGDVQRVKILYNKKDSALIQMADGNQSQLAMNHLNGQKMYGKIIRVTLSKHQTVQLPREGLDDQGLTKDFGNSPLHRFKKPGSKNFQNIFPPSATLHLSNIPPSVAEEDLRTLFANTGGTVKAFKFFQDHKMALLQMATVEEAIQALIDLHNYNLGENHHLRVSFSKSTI

GST-PTBP1 = GST-PTBP1 (UniProt P26599 1-557)
Chain of GST-PTBP1 (P26599 whole entry): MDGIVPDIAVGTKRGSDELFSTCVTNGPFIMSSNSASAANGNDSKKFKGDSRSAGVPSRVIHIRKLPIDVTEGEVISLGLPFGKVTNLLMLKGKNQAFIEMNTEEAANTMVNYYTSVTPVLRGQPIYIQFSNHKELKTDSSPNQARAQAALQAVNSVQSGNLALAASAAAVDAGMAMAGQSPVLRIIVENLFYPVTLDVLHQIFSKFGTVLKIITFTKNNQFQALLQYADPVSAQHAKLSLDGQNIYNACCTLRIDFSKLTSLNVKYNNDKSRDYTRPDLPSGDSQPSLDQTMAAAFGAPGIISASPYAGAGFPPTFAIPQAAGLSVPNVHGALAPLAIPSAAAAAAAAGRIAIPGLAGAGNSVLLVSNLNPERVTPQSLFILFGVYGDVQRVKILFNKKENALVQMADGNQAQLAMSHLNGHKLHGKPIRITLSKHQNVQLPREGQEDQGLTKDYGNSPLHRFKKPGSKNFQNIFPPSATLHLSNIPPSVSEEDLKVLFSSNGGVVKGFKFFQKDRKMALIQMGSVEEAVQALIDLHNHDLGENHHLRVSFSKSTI

5xH-PTBP1 [1] = target: T1, 5xH-PTBP1 (UniProt P26599 1-557)
T1 sequence (P26599 whole entry): as above

5xH-PTBP1 [2] = target: T1, 5xH-PTBP1; remark: listed apart in the source
GST-hnRNP A1 = GST-hnRNP A1 (UniProt P09651-2 1-320)
hnRNP A1 (TnT) = hnRNP A1 (TnT) (UniProt P09651-2 1-320)
GST-PTBP2 = GST-PTBP2 (UniProt Q9UKA9 1-531)
Chain of GST-PTBP2 (Q9UKA9 whole entry): as the sequence (Q9UKA9 whole entry) above

Row | Binder | binding result (PTBP2 (TnT)) | binding result (GST-PTBP1) | binding result (5xH-PTBP1 [1]) | binding result (5xH-PTBP1 [2]) | binding result (GST-hnRNP A1) | binding result (hnRNP A1 (TnT)) | binding result (GST-PTBP2)
1 | B1 | no binding | binds | binds |  |  |  | 
2 | B2 |  | binds | binds |  |  |  | 
3 | B3 |  |  |  | binds | no binding | no binding | 
4 | B4 |  |  |  |  |  | binds | no binding
